Laboratory results reported in US10874712B2, “Methods, compounds and compositions for modulating blood brain barrier integrity and re-myelination” (University Health Network, priority 2015, dated 2020).
Entries after “also recorded” stand apart in the source; their conditions may differ.

Columns and labels:
[1] = system: EAE-induced mice; assay: Experimental Autoimmune Encephalomyelitis (EAE) mouse model, body condition score; assay type: in vivo; design: clinical severity (body condition score): dose or concentration left out as unconfirmed
[2] = system: splenocytes and lymph node cells of EAE-induced mice; assay: Flow cytometry of splenocytes and lymph node cells of treated EAE mice; assay type: in vivo, mouse
Description: Mice were euthanized at day 10 post-induction of EAE. Freshly isolated spleens and draining caudal lymph nodes (LN) were pressed using a syringe plunger through a 70 μm cell strainers and washed twice using 2 mL of 2% FBS in complete RPMI-1640 medium (Invitrogen) supplemented with […], L-glutamine, p/s, and non-essential amino acids. Single-cell suspensions were lysed with 7 mL of red blood cell (RBC) lysing buffer (Life Technologies) and centrifuged at 700 rcf for 5 mins. After washing three times with 2% RPMI-1640 medium, cells were counted and cultured as described below or were subjected to cell surface staining.
The expression of cell-surface markers and cytokine expression on splenocytes and LN cells were characterized by flow cytometry. For analysis of naïve cells, 5×10^5 RBC depleted splenocytes and LN cells were plated in 96-well V-bottom plates (Starstedt) and blocked with 50 μl of 1% mouse IgG in 2% FBS PBS supplemented with azide (PFN3) for 20 min at 4° C. Cells were then stained with the following primary conjugated antibodies from BioLegend for 30 min on ice: CD5 (53-7.3), CD3 (145-2C11), CD4 (GK1.5), CD8 (53-6.7), CD19 (6D5), CD11b (M1/70), CD11c (N418), CD80 (16-10A1), CD86 (GL-1), CD44 (IM7), MHCII (M5/114.15.12), CD62L (MEL-14), ICAM-1/CD54 (3E2), IL-17A (TC11-18H10.41), IFN-γ (XMG1.2). All antibodies were re-suspended in PFN3. When required, cells were washed twice with 100 μl of PFN3 and stained with secondary SA-APC, SA-APC-Cy7, SA-PeCy7, or SA-Percp-Cy5.5 for 30 min on ice. Cells were then washed twice with PFN3 and re-suspended in a PFN3 solution containing propidium iodide (PI) before proceeding to FACS analysis.
To examine intracellular cytokine production, 0.5×10^6 RBC-depleted splenocytes and LN cells were plated on 96-well flat bottom plates (BD Biosciences) in 10% FBS in complete RPMI-1640 in the presence of 0.5 μg/mL phorbol 12-myrisate 13-acetate (PMA), 0.5 μg/mL Ionomycin, and Golgistop (BD Biosciences) for 4 h. Cells were subsequently washed in PBS and stained with Near-Infrared Live Dead (Life Technologies) as described in the manufacturer's protocol. Cells were then washed twice in PFN3 and stained for cell surface markers as described previously. Cells were then fixed with 100 μl of Cytofix/Cytoperm solution as per manufacturer's protocol. For intracellular staining, cells were then stained with anti-IL-17A, and anti-IFN-γ for 30 min on ice, washed twice, and re-suspended in PFN3 before proceeding to FACS acquisition. Nonspecific background staining was determined by using fluorochrome-matched isotype antibodies and fluorescence minus one control. […] For each experiment, at least 100,000 live events were acquired and analyzed using Flowjo software (Tree Star Inc.).

[3] = system: blood brain barrier of mice; assay: BBB permeability, Texas red dye leakage by widefield imaging; assay type: in vivo, mouse; settings: mice injected with RGMa plus the agent
Description: Mice were treated with RGMa (70 ug), RGMa (70 ug)+RGMc (70 ug), or Vehicle (1% BSA) 18 h prior to widefield imaging (100-300 ms exposure) prior to and following intravenous injection of Texas Red dye (0.5 mg) over time. […] (B) Quantification of the leakage of Texas Red dye (measured as the number of leakage sites/mm^2).
BBB integrity was assessed in mice treated with PBS (Vehicle), RGMa, RGMc, RGMa+ immunoglobulin domain of Neogenin (4Ig). Widefield imaging was then carried out under a Olympus microscope (BX6 1WI) prior to and following the injection of Texas red dye (100 uL, I.V., 5 mg/ml) using 100-300 ms exposure. Recording was performed from 0 min to 35 min following injection. Texas dye leakage was also assessed in RGMc knockout (KO) and wild type (WT) mice. The leakage of Texas-red dye was quantified by a blind experimenter measuring the number of leakage sites/mm^2. (A) Representative images of Texas red dye: PBS (Vehicle), RGMa, RGMa+RGMc and RGMa+4Ig (immunoglobulin domain of Neogenin). Quantification of the leakage of Texas Red dye in animals treated with (B) PBS (Vehicle), RGMa or RGMa+RGMc or in RGMc KO and WT mice or (C) PBS (Vehicle), RGMa, RGMa+RGMc or RGMa+4Ig.
Mice injected with BSA, RGMc, RGMa, or RGMa+RGMc. […] Leakage of Texas red dye was quantified by a blind experimenter measuring the number of leakage sites/mm^2. […]

[4] = system: optic nerves of adult mice; assay: Optic nerve crush and regeneration model (GAP43 staining); assay type: in vivo, mouse; settings: 1 μg/ml intraocularly at 3 and 10 days after injury; day 21; vs control proteins
Description: Optic nerve crush experiments were performed on animals and recovery assessed by staining for axonal fibres. The optic nerves of adult mice were crushed using fine self-closing forceps. sRGMc (1 μg/ml) or control solution was injected intraocularly at 3 and 10 days after injury. Animals were sacrificed at day 21 and optic nerves were dissected and fixed in 4% PFA. The optic nerves were sectioned longitudinally at 14 microns and stained with GAP43 antibody to stain newly regenerating axons.

[5] = intra-peritoneal injections, vs vehicle

B1: sRGMc: truncated form of RGMc with the GPI anchor sequence removed, released as a soluble protein (SEQ ID NOs: 1 and 3) (protein, listed as Homo sapiens)
chain: CKILRCNAEYVSSTLSLRGGGSSGALRGGGGGGRGGGVGSGGLCRALRSYALCTRRTARTCRGDLAFHSAVHGIEDLMIQHNCSRQGPTAPPPPRGPALPGAGSGLPAPDPCDYEGRFSRLHGRPPGFLHCASFGDPHVRSFHHHFHTCRVQGAWPLLDNDFLFVQATSSPMALGANATATRKLTIIFKNMQECIDQKVYQAEVDNLPVAFEDGSINGGDRPGGSSLSIQTANPGNHVEIQAAYIGTTIIIRQTAGQLSFSIKVAEDVAMAFSAEQDLQLCVGGCPPSQRLSRSERNRRGAITIDTARRLCKEGLPVEDAYFHSCVFDVLISGDPNFTVAAQAALEDARAFLPDLEKLH
disease severity [1, 5]: significantly abrogated disease severity
incidence of EAE onset [1, 5]: decreased the incidence of EAE onset
onset of disease [1, 5]: delayed the onset of disease
day by which treated animals developed clinical symptoms ([1]; intravenous sRGMc at days 3, 6 and 9): ≤ 14 day post-induction
clinical severity of the disease (body condition score) ([1]; intravenous sRGMc at days 3, 6 and 9 post-induction, vs vehicle, scored 18 days): significant decrease in clinical severity
clinical severity (body condition score) ([1]; sRGMc every three days, vs PBS, FIG. 6B): markedly reduced
expression profile of IL-17 and IFN-γ secreted by CD4+ T cells ([2]; PMA and ionomycin stimulated, EAE mice day 10): no effect
expression of adhesion markers (ICAM-1 and CD62L) on CD4+ and CD8+ T cells and B cells ([2]; naive splenocytes and lymph node cells, vs vehicle): does not affect
distribution of effector cells (CD3+, CD8+, CD4+ T cells) ([2]; splenocytes day 10, vs vehicle): does not alter
distributions and activation of dendritic cells (CD11c+) and B cells (MHC II, CD80+/CD86+) ([2]; splenocytes day 10, vs vehicle): unaltered
RGMa-induced disruption of BBB integrity (Texas Red dye leakage) [3]: suppressed; also recorded: ameliorated
regeneration of axonal fibres at the site of injury (GAP43) [4]: promote the regeneration of axonal fibres
